{"source": "paper PMC7573591", "about": "(Nature Communications, 2020)", "proteins": {"B1": {"name": "shcis-PT (soluble human cis-prenyltransferase complex, DHDDS-sNgBR) (Homo sapiens) (protein)", "chain 1": "MSWIKEGELSLWERFCANIIKAGPMPKHIAFIMDGNRRYAKKCQVERQEGHSQGFNKLAETLRWCLNLGILEVTVYAFSIENFKRSKSEVDGLMDLARQKFSRLMEEKEKLQKHGVCIRVLGDLHLLPLDLQELIAQAVQATKNYNKCFLNVCFAYTSRHEISNAVREMAWGVEQGLLDPSDISESLLDKCLYTNRSPHPDILIRTSGEVRLSDFLLWQTSHSCLVFQPVLWPEYTFWNLFEAILQFQMNHSVLQKARDMYAEERKRQQLERDQATVTEQLLREGLQASGDAQLRRTRLHKLSARREERVQGFLQALELKRADWLARLGTASA", "chain 2": "RGGSCLAAAHHRMRWRADGRSLEKLPVHMGLVITEVEQEPSFSDIASLVVWCMAVGISYISVYDHQGIFKRNNSRLMDEILKQQQELLGLDCSKYSPEFANSNDKDDQVLNCHLAVKVLSPEDGKADIVRAAQDFCQLVAQKQKRPTDLDVDTLASLLSSNGCPDPDLVLKFGPVDSTLGFLPWHIRLTEIVSLPSHLNISYEDFFSALRQYAACEQRLGK", "notes": "full-length DHDDS 1-333 plus cytosolic NgBR 73-293 (no transmembrane domain); co-expressed in E. coli; TRX fusions, His- and Strep-tags cut by TEV"}, "B2": {"name": "dehydrodolichyl diphosphate synthase (DHDDS), full-length human, residues 1-333 (enzyme, UniProt Q86SQ9 1-333, looked up)", "chain": "B1 chain 1", "notes": "human dehydrodolichyl diphosphate synthase (DHDDS), full length, residues 1-333, UniProt Q86SQ9; Cloned into pET-32b as a TRX fusion with a TEV site; tags and TRX removed by TEV protease before the final size-exclusion step; also called DHDD synthase; catalytic subunit of hcis-PT / shcis-PT / xcis-PT"}}, "key": {"purified protein [1]": {"substrate": "C=C(C)CCO[P@@](=O)(O)OP(=O)(O)O", "assay": "purified protein", "conditions": "10 μM FPP, 0.5 mM MgCl2, pH 7.5, 30 °C, 0.02% Triton X-100, labelled compound"}, "purified protein [2]": {"substrate": "CC(C)=CCC/C(C)=C/CC/C(C)=C/CO[P@@](=O)(O)OP(=O)(O)O", "assay": "purified protein", "assay_type": "biochemical, Homo sapiens", "conditions": "100 μM IPP, 0.5 mM MgCl2, pH 7.5, 30 °C, 0.02% Triton X-100"}, "[3]": {"biological_target": "the molecule itself", "assay": "cross-linking; about 8 µM purified shcis-PT with 0.005% glutaraldehyde, room temperature, 15 min; products analysed by SDS-PAGE"}}, "data": [{"protein": "B1", "values": [{"measurement": "Km", "setting": "purified protein [1]", "value": "6.23 ± 1.50", "unit": "µM"}, {"measurement": "kcat", "setting": "purified protein [1]", "value": "0.74 ± 0.02", "unit": "s⁻¹"}, {"measurement": "Km", "setting": "purified protein [2]", "value": "0.11 ± 0.01", "unit": "µM"}, {"measurement": "kcat", "setting": "purified protein [2]", "value": "0.74 ± 0.02", "unit": "s⁻¹"}]}, {"protein": "B2", "values": [{"measurement": "binding result", "setting": "[3]", "value": "binds"}]}]}
